From patent US8816055 come the findings set out here.

Where a chain is given by its changes, count along the chain named.

B1: X115-B07 (antibody, V domains shown)
VL: EIVLTQSPGTLSLSPGERATLSCRTSQFVNSNYLAWYQQKPGQAPRLLIYGASSRATGIPDRFSGSGSGTDFTLTISRLEPEDFAVYYCQQSSRTPWTFGQGTKVEIK
VH: EVQLLESGGGLVQPGGSLRLSCAASGFTFSHYLMTWVRQAPGKGLEWVSYISPSGGHTIYADSVKGRFTISRDNSKNTLYLQMNSLRAEDTAVYYCAMVGQGIRGRSRTSYFAQWGQGTLVTVSS
B2: X115-D05 (antibody, V domains shown)
VL: B1 VL
VH: EVQLLESGGGLVQPGGSLRLSCAASGFTFSDYMMAWVRQAPGKGLEWVSSIVPSGGHTHYADSVKGRFTISRDNSKNTLYLQMNSLRAEDTAVYYCARVARGIAARSRTSYFDYWGQGTLVTVSS
B3: X115-E09 (antibody, V domains shown)
VL: B1 VL
VH: B1 VH with M98R, G100A, R104A, G105A, Y111S, F112V, A113D
B4: X115-H06 (antibody, V domains shown)
VL: B1 VL
VH: B1 VH with M98R, G100A, R104S, G105A, A113D, Q114Y
B5: X115-A03 (antibody, V domains shown)
VL: DIQMTQSPSTLSASVGDRVTITCRASQSISSWLAWYQQKPGKAPKLLIYKASTLESGVPSRFSGSGSGTEFTLTISSLQPDDFATYYCQQYNTYWTFGQGTKVEIK
VH: EVQLLESGGGLVQPGGSLRLSCAASGFTFSHYIMMWVRQAPGKGLEWVSGIYSSGGITVYADSVKGRFTISRDNSKNTLYLQMNSLRAEDTAVYYCAWRRIGVPRRDSFDMWGQGTMVTVSS
B6: X115-G04 (antibody, V domains shown)
VL: B5 VL
VH: B5 VH with W98Y, I101T, S108E, M111I
B7: X115-D01 (antibody, V domains shown)
VL: B5 VL
VH: EVQLLESGGGLVQPGGSLRLSCAASGFTFSIYSMHWVRQAPGKGLEWVSSIYPSRGMTWYADSVKGRFTISRDNSKNTLYLQMNSLRAEDTAVYYCAYRRTGIPRRDAFDIWGQGTMVTVSS
B8: X115-F02 (Fab, V domains shown)
VL: B5 VL
VH: B5 VH with W98Y, S108E, M111I

The target in this test is human plasma kallikrein (active form) (human), P03952. Put plainly: Ki,app on full length pKal, enzyme inhibition. Conditions: remark: other sources report otherwise.
Sequence of human plasma kallikrein (active form) (human), P03952 (P03952 20-390, chain 1 of 2): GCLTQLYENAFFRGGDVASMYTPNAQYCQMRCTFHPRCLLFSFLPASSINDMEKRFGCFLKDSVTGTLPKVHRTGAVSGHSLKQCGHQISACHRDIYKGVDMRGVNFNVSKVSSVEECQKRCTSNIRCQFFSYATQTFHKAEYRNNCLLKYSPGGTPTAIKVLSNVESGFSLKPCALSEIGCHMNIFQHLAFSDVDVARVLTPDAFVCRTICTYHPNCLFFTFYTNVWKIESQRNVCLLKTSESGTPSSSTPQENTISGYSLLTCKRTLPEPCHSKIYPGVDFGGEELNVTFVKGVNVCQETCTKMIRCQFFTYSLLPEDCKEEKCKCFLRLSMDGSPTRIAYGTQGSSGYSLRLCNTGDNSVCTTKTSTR
Sequence of human plasma kallikrein (active form) (human), P03952 (P03952 391-638, chain 2 of 2): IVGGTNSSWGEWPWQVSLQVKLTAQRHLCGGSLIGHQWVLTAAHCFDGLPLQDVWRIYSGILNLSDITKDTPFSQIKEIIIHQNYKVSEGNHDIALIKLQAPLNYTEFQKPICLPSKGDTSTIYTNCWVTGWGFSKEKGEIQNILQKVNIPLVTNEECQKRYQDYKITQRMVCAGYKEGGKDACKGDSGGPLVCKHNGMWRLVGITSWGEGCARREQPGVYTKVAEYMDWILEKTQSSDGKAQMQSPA
The molecule B1 came in with a Ki of 0.33 nM.
B2 registered a Ki of 0.25 nM.
In the case of B3, the Ki came to 0.34 nM.
B4 had a Ki of 0.35 nM.
With B5 the figure was 0.16 nM; with B6, 0.6 nM.
B7: the Ki was 0.18 nM.
In turn, B8 yielded a Ki of 0.089 nM.
